In the nanobody polyreactivity screen of Harvey et al. (2022):

Experiment: yeast display, Sf9 membrane polyspecificity reagent, FACS + sequencing; frameworks hold sequencing errors
In short: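 After 36–48 hours of galactose induction, yeast (Saccharomyces cerevisiae BJ5465) displaying a synthetic nanobody library were stained at 4 °C for 1 hour with 10% biotinylated, detergent-solubilized Sf9 membrane reagent. Streptavidin microbeads enriched the stained cells before FACS sorting into low and high (top ~1%) gates on anti-HA and streptavidin fluorescence. Each clone's polyreactivity label reflects its gate of origin.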
With “QVRLVESGGGLVQAGCSLRLSCAASGSTFWSYAMGWYRQAPGKERELVAAISWSGDSTYYADSVKGRFTISRDNAKNTVYLQMNSLKPEDSAVYYCAADYTGSFYTYDYWGQGTQVTVSS” the “polyreactivity (PSR sort gate)” value was “low polyreactivity”. In the case of “QVQLVESGGGLVQAGGSLRLSCAASGSTFLITALGWYRQAPGKEREFVADISSSDGSTYYADSVKGRFTISRDNAKNTVYLQMNSLKPEDTAVYYCAAAHVEGSYHKYYYWGQGTQVTVSS”, the “polyreactivity (PSR sort gate)” value is reported as “high polyreactivity”. With “QVQLVESGGGLVQAGGSLRLSCAASGGIFRGYAMGWYRQAPGKERELVAAISSRDGRTYYADSVKGRFTISRDNEKNTVYLQMNSLKPEDTAVYYCAASSFNNGHRYDYWGQGTQVTVSS” the “polyreactivity (PSR sort gate)” value was “high polyreactivity”. With “QDQLVESGGGLVQAGGSLRLSCAASCFTSLIYAMGWYRQAPGKERELVASITWGGGSTYADSVKGRFTISRDNAKNTVSLLMNSLKPEDTAVYYCASLYWWYPFNYWGQGTQVTVSS” the “polyreactivity (PSR sort gate)” value was “low polyreactivity”. In the case of “QVQLVESGGGLYQAGGSLRLSCAASGIIFKSYLMGWDRQAPGKEREFVARITYRGGSTYYADSVKGRFTISRDNAKYTFNLQMNSLNQEDTAVYYCIARVRRRRYKYDYWGQGTQVTVST”, the “polyreactivity (PSR sort gate)” value is reported as “high polyreactivity”. In the case of “QVHLVESGGGLVQAGGTLRLSCAASGRIFHPNEMRWYRQAPGKEWELVAAISWRGTSTYADSVKGRFTISRDNAKNTVYLQMNSLKPEDTAVYYCVRRYTGLPGWSSYGSYESGYWGQGTQVTVSS”, the “polyreactivity (PSR sort gate)” value is reported as “high polyreactivity”. For “QVQLVESGGGLVQAGGSLRLSCAASGSTYIANPMGWYRQAPGKEREFLATISRRGGSTYYADSVKGRFTISRDNAKNTVYLQMNSLKPEDTAVYYCAARPLTYIRFRYYYWGQGTQVTVSS”, the “polyreactivity (PSR sort gate)” value was “high polyreactivity”. For “QVQLVESGGGLVQAGGSLRLSCAASGRTFNYYAMGWYRQAPGKERESVAAISWRGGSTYYADSVKGRFTISRDNAKNTVYLQMNSLKPEDTAVYYCNKYFSWRPYSYYYWGQGTQVTVSS”, the “polyreactivity (PSR sort gate)” value was “high polyreactivity”. In the case of “QVQLVESGGGLVQAGGSLRLTCAASARTFVGNAMGWYRQAPGKERELVAVITGSGARTYYADSVKGRFTISRDNAKNTVYLQMNSLKPEDTAVYYCAGSGYSGQYRSYYWGQGTQVTVSS”, the “polyreactivity (PSR sort gate)” value is reported as “high polyreactivity”. With “QVQLVESGGGLVQAGGSLRLSCAASGSIFGLYAMGWYRQAPGKERELVAAITDSTGSTSYADSVKGRFTISRDNAKNTVYLQMNSLKPEDTAVYYCAAGQGRWRHGFDYWGQGTQVTVSS” the “polyreactivity (PSR sort gate)” value was “low polyreactivity”. In the case of “QVQLVESGGGLVQAGGSLRLSCAASGSIFVRNAMGWYRQAPGKERELVAAISGSGGRTYYADSVKGRFTISRDIAKNTVYLQMNSLKPEDTAVYYCARVPSGQLEYDYWGQGTQVTVSS”, the “polyreactivity (PSR sort gate)” value is reported as “high polyreactivity”. For “QVKLLESGGGLVQSGGSLRLSCAAYAIIFRWYTMGGYRQAPGKERQLVAAISTSTGSTYYADSVKGRFTISRDNAKNTVYLQMNSLKPEDTAVYYCAADYAYWNYESYYWGQGTQVTVSS”, the “polyreactivity (PSR sort gate)” value was “high polyreactivity”. In the case of “HGQLVESGGGLVQAGGSLRLSCAASGSHLSNYAMGWYREAPGKERELVAAISLSVGSTYYADSVKGRFTISRDNAKNTVYLQMNSLKPEDTAVYYCAADDFYSGPFRGDYWGQGTQVTVSS”, the “polyreactivity (PSR sort gate)” value is reported as “low polyreactivity”. For “QVQLVESGGGLVQAGGTLRLSCAPSGSIFTFYAMGWYRQAPGKERELVAAITRSGGSTYYADSVKGRFTISRDNAKNTVYLQMNSLKPEDTAVYYCAKDPSSYVTYRYYYWGQGSQVTVSS”, the “polyreactivity (PSR sort gate)” value was “low polyreactivity”. For “QVQLVESGGGLVQAGGSLRLSCASSGSIFEANAMGWYRQAPGIESELVAAISTTGGNTYYADSVKGRFTISRDNAKNTVYLQMNSLKPEDTAVYYCAADPSQPRIDSSNYDYWGQGTQVTVSS”, the “polyreactivity (PSR sort gate)” value was “low polyreactivity”. In the case of “QVQLQESGGGLVQAGGSLRLSCAASGNIFGTKSMGWYRQAPGKGREFVAAINDGGSTNYADSVKGRFTIGRDNAKNTVYLQMNSLKPEDTAVYYCAAQWVRSDYHTYWGQGTQVTVSS”, the “polyreactivity (PSR sort gate)” value is reported as “high polyreactivity”. In the case of “QVQLVESGGGLVQAGGSLRLSCAASGSIFYRNAMGWYRQAPGKERELVAAISRGGSTNYADSVKGRFTIERDNAKNTVYLQMNSLKPEDTAVYYCNALYHGDYDYWGQGTQVTVSS”, the “polyreactivity (PSR sort gate)” value is reported as “high polyreactivity”. For “QVKLVESVGGLVQAGGSLRFSCAASANTFYYYAMGWYREAPGNDMELVASITWRVGDTYYADSVKGRFTIARDNAKNTVYLQMNSLKPEDTAVYYCAKPRLGRYDSLSYLGDYPGYDYWGQGTQVTVSS”, the “polyreactivity (PSR sort gate)” value was “low polyreactivity”. In the case of “QVQLVESGGGLVQAGGSLRLSCAASGIIFSGYARGWSRQAPGKERELVAVISSSGGGTYYADSVKGRFTISRDNAKNTVYLHMNSLKPEDTAVYYCAARGREAIHGYWGQGTQVTVSS”, the “polyreactivity (PSR sort gate)” value is reported as “high polyreactivity”. With “QVQLVESGGGLVQAGGSLRISCAASGSIFRQYAMGLYRQAPGKEWELVAAITYSGGNTYYADSVKGRFTISRDNAKNTVYLQMNSLKPEDTAVYYCAADYGSRSWEYNYWGQGTQVTVSS” the “polyreactivity (PSR sort gate)” value was “low polyreactivity”. For “QVQLVESGGGLVQAGGSLRLSCAASGRIFYYNAMGWYRQAPGKERELVAAISYTSGRTYYADSVKGRFTISRDNAKNTVYLQMNSLKPEDTAVYYCAADYYLRKGMDYWGQVTQVTVSS”, the “polyreactivity (PSR sort gate)” value was “low polyreactivity”. With “QVHLEESGGGLVQAGGSLRISCAASGSTFYYYAMGWYRQAPGKERELVAAISNRDGRTYYADSVKGRFTISRDNAKNTVYLQMNSLKPEDSAVYYCNAYSYGHYYWGQGTQVTVSS” the “polyreactivity (PSR sort gate)” value was “high polyreactivity”. For “QVQLVESGGGLVQAGGSLRLSCADSGRTFRIYAMGLYIQAPGKERELVAAITRRGGSTYYADSVKGRFTISRDNAKNTVYLQMNSLKPEDTAVYYCAADLRYGYLYPYDSWGQGTQVTVSS”, the “polyreactivity (PSR sort gate)” value was “high polyreactivity”. With “QVQLVESGGGLVQAGGSLRLSCAASGSTFVKNAMGWYRQAPGKERELVAAISYRGGRTYYADSVKGRYTISRDNAKNTVYLQMNSLKPEDTAVYYCNARYRTPSFIRMGYWGQGTQVTVSS” the “polyreactivity (PSR sort gate)” value was “high polyreactivity”. With “QVQLVESGGGLVQAGGSLRLSCAASVSTFDYYTMGRYRQAPGKERELVAAISSAGSTNYADSVKGRFTISRDNAKNTVYLQMNSLKPEDTAVYYCAAQVHPIRYDYWGQGTQVTVSS” the “polyreactivity (PSR sort gate)” value was “low polyreactivity”. With “QVQLVESGGGLVQAAGSLRLSCAASGNTFRWYVMGWYRQAPGKERELVAAITSSGSNTYYADSVKGRFTISRDNAKNTVYLQMNSLKPEDTAVYYCAARNYGPYDYWGQGTQVTVSS” the “polyreactivity (PSR sort gate)” value was “low polyreactivity”. With “QVQLVESGGGLVQAGGSLRLSCAASGSTFASNVMGWYRQAPGKERELVAAITRGDRTHYADSVKGRFTISRDNAKNTVYLQMNSLKPEDTAVYYCAARFIFWVYDYDYWGQGSQVTVSS” the “polyreactivity (PSR sort gate)” value was “low polyreactivity”. In the case of “QVQLVESGGGLVQAGGSLRLSCAASGSIFAQNAIGWYRQAPGKERELVAAIDLNGGSTYYADSVKGRFTISRDNAKNTVYLQLNSQKPEDTAVYYCAVYYGHSSVIRSSPEYDSWGQGTQVTVSS”, the “polyreactivity (PSR sort gate)” value is reported as “low polyreactivity”. With “QGQLVESGGGLVQAGGSLRLSSAASGRIYLTNAMGWYRPAPGKERELVAAITSGGSTYYADSVKGRFTISRDNAKNTVYLQMNSLKPEDTAVYYCNADTDRYWPYEYDYWGQGTQVTVSS” the “polyreactivity (PSR sort gate)” value was “low polyreactivity”. For “QVQLVESGGGLVQAGGSLRLSCAASGSTFKNNAMGWYRQATGKEREFVAGITRRGTSTYYADSVKGRFTISRDNAKNTVYLQMNSLKPEDTAVYYCAVGVYDYTGTYGYWGQGTQVTVSS”, the “polyreactivity (PSR sort gate)” value was “high polyreactivity”. In the case of “QVQLVESGGGLVQAGGSLRLSCAASGITFRRYAMGWYRPAPGKERELVAVISVSGGRTHYADSVKGRFTISRDNAKNTVYLQMNSLKPEDTAVYYCAADFLRYPLGYWGQGTQVTVSS”, the “polyreactivity (PSR sort gate)” value is reported as “high polyreactivity”. In the case of “QVQLVESGGGLVQAGGSLRLSCAASGRIISVNAMGWYRQAPGKERELVAAITTRGGTPYYADSVKGRFTISRDNAKNTVSLQMNSLKPEDTAVYYCAAESSWSVYWEWAHDYWGQGTQVTVSS”, the “polyreactivity (PSR sort gate)” value is reported as “low polyreactivity”. With “QVQLVESGGGLVQSGGSLRLSCAASGRTFSKNAMGWYRQAPGKERELVAAISGSGGSTYYADSVKGRFTISRDNAKNTVYLQMNSLKPEDTAVYYCADRYTVRRSGYWGQGTQVTVSS” the “polyreactivity (PSR sort gate)” value was “high polyreactivity”. For “QVQLVESGGGLVQAGGSLRLSCAASGRIFNRYAMGWYRQAPGKEREFVARITGSGGRTYYADSVKGRFTISRDNAKNTVYLQMNSLKPEDTAVYYCARDRGYQSGYDYWGQGTQVTVSS”, the “polyreactivity (PSR sort gate)” value was “high polyreactivity”. In the case of “QVQLVESGGGLVQAGGSLRLSCAASGFILGWYAMGWYRQAPGKERELVADISASGTRTYYADSVKGRFTISRDNAKNTVYLQMNSLKPEDTAVYYCNVYTKFVYAYDYWGQGTQVTLSS”, the “polyreactivity (PSR sort gate)” value is reported as “high polyreactivity”. In the case of “QVQLVESGGGLVQAGGSLRLSCAASGSIFSRNAMGWYRQAPGKERELVAAISRRGGSTYYADSVKGRFTISRDNAKITVYLQMNSLKPEDTAVYYCAAPFEAVRSYYWGQGTQVTVSS”, the “polyreactivity (PSR sort gate)” value is reported as “high polyreactivity”. With “QVQLVESGGGLVQAGGSLRLSCAASGFIFDTYAMGWYRQAPGKERELVARINYSGGSTRYADSVKGRFTISRDNAKNTVYLQMNSLKPEDTAVYYCAAREFSYGFYYWGQGTQVTVSS” the “polyreactivity (PSR sort gate)” value was “high polyreactivity”. For “QVQLVESGGGLVQAGGSLRLSCAASGFISPKYGMGWYRQAPGKERELVAAITPSDGSTSYADSVKGRFTISRDNAKNTVYLQMNSLKPEDTAVYYCNKSRYKSYSYDYWGQGTQVTVSS”, the “polyreactivity (PSR sort gate)” value was “high polyreactivity”. In the case of “QVQLVESGGGLVQAGGSLRLSCGASGSIFPHYAMGWYRQAPGKEREFVSTISGSTGRTYYADSVKGRFTISRDNAKNTVYLQMNSLKPEDTAVYYCATSVGYYLPPIKYDYWGQGTQVTVSS”, the “polyreactivity (PSR sort gate)” value is reported as “low polyreactivity”. For “QVQLVESGGGLDQAGGSLRLSCAASGRIFYQNAMGLSRQAPGKERELVAAITSSGVSTYYADSVKGRFTISRDNAKNTVYLQMNSLKPEDTAVYYCAAYRVGYGGYSYYYWGQGTQVTVSS”, the “polyreactivity (PSR sort gate)” value was “high polyreactivity”. In the case of “QVQLVESGGGLVQAGGSLRLSCAASGSTYQGYAMGWYRQAPGKERELVAAISGRSGSTYYADSVKGRFTISRDNAKNTVYLEMNSLKQEDTAVYYFNAVTGVNPSLDYWGQGTQVTVSS”, the “polyreactivity (PSR sort gate)” value is reported as “high polyreactivity”.
